These results are taken from publication PMC9583845, “Characterization of the chicken melanocortin 5 receptor and its potential role in regulating hepatic glucolipid metabolism” (Frontiers in Physiology, 2022).

The test system of experiment [1] is primary chicken hepatocytes. As to the kind of experiment: Glucose production from primary cultured chicken hepatocytes. The conditions noted are these: primary chicken hepatocytes; 100 nM for 30 or 60 min, or 0.1–100 nM for 60 min; gluconeogenic substrates 20 mM lactate, 2 mM pyruvate; four independent experiments; Figures 7A,B. Type of experiment: cell-based. The method, then:
(§1) To evaluate the effect of ACTH1-39 on chicken liver, the chicken hepatocytes were prepared and maintained as a monolayer culture. Briefly, one-month-old male chicken hepatocytes were isolated by perfusion of a liver with Ca^2+-free KRB buffer to remove blood cells, and being digested with 0.25% collagenase-I for 10 min. Hepatocytes were obtained following filtering and washing using M199 medium. Then the hepatocytes were plated in a Corning CellBIND 48-well microplate (Corning, NY, cat. no.3338) with M199 medium containing 100 U/ml penicillin and […] streptomycin (Gibco), 5 μg/ml bovine insulin (Sigma), and 5% FBS at 37°C in a 5% CO2 atmosphere. To adhere to the wall, the cells were incubated on the 48-well plate for 4 h.
Glucose production from primary cultured chicken hepatocytes was measured as previously described ([Collins et al., 2006]). Briefly, cells were washed three times with warm phosphate-buffered saline (PBS) to remove glucose, followed by treatment with 100 nM (or different concentration gradients) chicken ATCH1-39 for 30 min or 60 min in glucose-free medium containing gluconeogenic substrates (20 mM sodium lactate and 2 mM sodium pyruvate). Glucose concentration was determined with a glucose assay kit (Applygen, Beijing, China, catalog no. E1011). Briefly, the 5 µl medium was added into 195 µl reagent and incubated for 20 min at 37°C. Absorbance in 550 nm was measured in a standard glucose solution.

The test system of experiment [2] is intracellular cAMP / CREB. The conditions noted are these: ref Herzig et al., 2001; Noriega et al., 2011; cited from earlier work. From the text: Like its mammalian counterparts, numerous putative transcription factor binding sites were found in the upstream of the MC5R transcription start site. According to reports, Foxo4 may bind to the ...
In experiment [3] the test system is MC5R mRNA, primary chicken hepatocytes. In words: MC5R mRNA in primary chicken hepatocytes, RT-qPCR. Type of experiment: cell-based. The conditions noted are these: 6 h. As for the experimental part: as §1, with “h. For quantitative real-time PCR, primary cultured chicken hepatocytes were treated with various concentrations of ACTH1-39 (or other composition) at 37°C for 6 h. The relative amount of mRNA was calculated using the comparative Ct method. Chicken β-actin gene was used as the reference gene. Amplification of specific transcripts was confirmed by analyzing the melting curve profile performed at the end of each run and by determining the size of the PCR products using agarose electrophoresis and ethidium bromide staining.” for “h.”
(Real-time PCR tracks product formation cycle by cycle.)

In another experiment the target is chicken MC5R (Gallus gallus, UniProt O73671). On the set-up: method as in 3 sources, ref Ling et al., 2004 ||| ref Dores et al., 2020 ||| ref Schioth et al., 1997; Ling et al., 2004. The conditions noted are these: cited from earlier work; for EC50 values / potency at chicken MC5R compared (in words): human α-MSH vs ACTH1-24, ref Ling et al.
A further experiment concerns chicken MC2R + MRAP1. Particulars: co-expressed with MRAP1 in CHO cells; ref Barlock et al., 2014; cited from earlier work. An excerpt:
In the chicken genome, there are five paralogous MCRs and two MRAPs ([Ling et al., 2004]; [Barlock et al., 2014]; [Zhang et al., 2017]; [Thomas et al., 2018]). In recent years, the pharmacological characterization and physiological activity of chicken MCRs (cMCRs) have been widely explored ([Scanes and Pierzchala-Koziec, 2021]). […] MC1R of dark-feathered chickens with a Glu to Lys mutation at position 92 show ...

For a further experiment, the target named is chicken MC5R + MRAP2 (Gallus gallus, UniProt O73671). On the set-up: method as in Thomas et al., 2018. The conditions noted are these: ref Thomas et al., 2018; cited from earlier work.
The next experiment concerns the target chicken MC5R + MRAP1 (Gallus gallus, UniProt O73671). The conditions noted are these: 2020, cited from earlier work; for effect of MRAP1 on cMC5R sensitivity: CHO cells, ref Thomas et al., 2018, Dores et al. An excerpt:
(§2) Since the R15K and I20 V substitutions in chicken and human ACTH occur in/near the KKRRP motif (Figure 2A), it might lead to different regulatory effects o ...

For a further experiment, the system named is MC5R orthologs + MRAP1. Particulars: ref Dores et al., 2018, Barney et al., 2019, 2020, Hoglin et al., 2022; cited from earlier work.
Source text: as §2

For a further experiment, the system named is human MC5R. The conditions noted are these: ref Schioth et al., 1997; Ling et al., 2004; cited from earlier work. An excerpt: The luciferase reporter system was then employed to investigate the signal pathway of MC5R coupling. […] Human peptides have previously been ...

“Also recorded” adds a separate entry of the source. Like-named read-outs stand apart in the source and are kept apart here.

Chain of chicken MC5R + MRAP1 (O73671 1-325): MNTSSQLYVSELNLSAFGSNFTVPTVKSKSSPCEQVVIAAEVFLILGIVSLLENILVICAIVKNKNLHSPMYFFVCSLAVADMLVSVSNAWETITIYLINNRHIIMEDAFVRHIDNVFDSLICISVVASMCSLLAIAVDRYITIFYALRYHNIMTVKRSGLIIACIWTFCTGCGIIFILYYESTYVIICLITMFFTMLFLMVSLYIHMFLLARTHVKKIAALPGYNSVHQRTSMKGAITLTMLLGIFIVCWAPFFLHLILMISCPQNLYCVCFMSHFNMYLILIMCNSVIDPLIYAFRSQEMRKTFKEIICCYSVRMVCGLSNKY
Chain of chicken MC5R (O73671 1-325): as above
Chain of chicken MC5R + MRAP2 (O73671 1-325): as above
Chain of chicken MC5R + MRAP2 (A0A140B2F4 1-206 partner): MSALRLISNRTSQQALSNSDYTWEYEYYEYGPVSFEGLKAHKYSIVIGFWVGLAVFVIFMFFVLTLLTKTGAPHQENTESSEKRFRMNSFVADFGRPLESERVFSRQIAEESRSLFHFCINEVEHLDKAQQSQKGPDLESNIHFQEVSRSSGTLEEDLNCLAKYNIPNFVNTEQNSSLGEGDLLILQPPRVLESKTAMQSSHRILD

For “glucagon: chicken glucagon; induce cAMP elevation in a dose-dependent way”, the “glucose production (in words)” value in experiment [1] is given as “induction of gluconeogenesis”. The “intracellular cAMP accumulation and CREB activation” value in [2] is “enhance the intracellular cAMP accumulation and activate CREB”. In addition, the “increase in MC5R mRNA abundance” value in experiment [3] (glucagon 10–100 nM, N = 4, Figure 6E) came out at 3.5 fold. Also, in experiment [3] (primary chicken hepatocytes, N = 4, vs β-actin, Figures 6C-E), the “MC5R mRNA abundance (in words)” value is given as “increased hepatic MC5R mRNA abundance; also recorded: enhance the expression of MC5R in cultured hepatocytes in a dose-dependent manner”.
Take “human ACTH1-24: shortened form of hACTH1-39 used in cited studies”: the “EC50 values / potency at chicken MC5R compared (in words)” value with chicken MC5R (2004) was “equal potency for chicken MC5R”; with chicken MC5R (2004, listed as ACTH1-24), “equivalent”. For the same substance, the “ability of hACTH1-39 vs hACTH1-24 to activate chicken MC5R” value in the experiment with chicken MC5R (ref Schioth et al., 1997, Ling et al., 2004) is “no different”. Further, the “EC50 compared, hACTH1-24 vs srACTH1–24” value with chicken MC5R (srACTH1–24 has R15 and I20, ref Dores et al., 2020) is reported as “no statistical differences in the EC50 values”. In addition, the “activation of cMC2R” value with chicken MC2R + MRAP1 is “can be activated by ACTH1-24”. The “effect of MRAP2 on cMC5R sensitivity” value in the experiment with chicken MC5R + MRAP2 is on record as “no influence on cMC5R sensitivity to human ACTH1–24”. The “effect of MRAP1 on cMC5R sensitivity” value with chicken MC5R + MRAP1 was “improved chicken MC5R sensitivity to human ACTH1-24”; with chicken MC5R + MRAP1 (listed as hACTH1–24), “significantly increased the sensitivity of cMC5R to hACTH1–24”. The “increase of MC5R sensitivity to hACTH1–24 with cMRAP1” value with chicken MC5R + MRAP1 (KKRRP motif of hACTH1–24 necessary, ref Dores et al.) was ~1,000 fold. For the same substance, the “effect of MRAP1 co-expression on sensitivity of MC5R orthologs” value in the experiment on MC5R orthologs + MRAP1 was “increase sensitivity to ACTH1-24”. For the same substance, in the experiment on human MC5R, the “ability of hACTH1-39 vs hACTH1-24 to activate human MC5R” value is given as “no different”.
